Biological target: T1, RNF31 PUB domain (Homo sapiens, UniProt Q96EP0)
T1 construct: MBP-TEV (N, cleaved yes); made in house; host or cells: E. coli BL21 (DE3) pLysS
T1 sequence (Q96EP0 1-179): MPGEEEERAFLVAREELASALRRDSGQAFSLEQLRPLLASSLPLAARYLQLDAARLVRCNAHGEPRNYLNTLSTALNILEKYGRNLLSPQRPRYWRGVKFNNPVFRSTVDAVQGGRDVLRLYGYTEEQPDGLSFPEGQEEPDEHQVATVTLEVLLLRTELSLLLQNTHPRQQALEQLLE
Assay: Phage Library Screening with NGS, RNF31 PUB domain
Assay type: binding
Details: for Phage library screen NGS readout, Target Concentration 10 / Phage library screen NGS readout, Target Concentration 30 / Phage library screen NGS readout, Target Concentration 100 / Phage library screen NGS readout, Target Concentration 300 / Phage library screen NGS readout, Target Concentration 1000: RNF31 PUB domain clusters C41-C45; for Phage library screen NGS readout, BLANK: clusters C41-C45

[1] = target concentration 1000, first column
[2] = target concentration 1000, second column

Sequence | Phage library screen NGS readout, Target Concentration 10 | Phage library screen NGS readout, Target Concentration 30 | Phage library screen NGS readout, Target Concentration 100 | Phage library screen NGS readout, Target Concentration 300 | Phage library screen NGS readout, Target Concentration 1000 [1] | Phage library screen NGS readout, Target Concentration 1000 [2] | Phage library screen NGS readout, BLANK (column 1 of 5) | Phage library screen NGS readout, BLANK (column 2 of 5) | Phage library screen NGS readout, BLANK (column 3 of 5) | Phage library screen NGS readout, BLANK (column 4 of 5) | Phage library screen NGS readout, BLANK (column 5 of 5)
DPAHTWCMYAAFDCFES | 1 | 0 | 0 | 1 | 9 | 4 | 1 | 2 | 2 | 0 | 0
DPAQHECIYAAWDCDML | 1 | 1 | 1 | 5 | 6 | 8 | 3 | 2 | 0 | 1 | 0
DPAYWDCLYAAADCAFY | 0 | 0 | 0 | 4 | 8 | 5 | 2 | 0 | 0 | 0 | 0
DPAFQFCVEAAVACSYY | 0 | 0 | 0 | 6 | 9 | 5 | 0 | 0 | 0 | 0 | 4
DPAYSSCSWAAIYCNWT | 1 | 1 | 5 | 2 | 7 | 4 | 1 | 1 | 4 | 2 | 1
DPAQYQCDIAAQVCSTY | 0 | 0 | 0 | 4 | 12 | 10 | 0 | 0 | 0 | 0 | 0
DPAMQECMDAAIMCTYA | 0 | 0 | 0 | 4 | 14 | 8 | 0 | 2 | 0 | 0 | 0
DPAYDLCLNAAVACTYV | 0 | 2 | 2 | 19 | 62 | 71 | 1 | 2 | 1 | 0 | 0

Results, then the sequence that gave them:

Phage library screen NGS readout, Target Concentration 10 | Phage library screen NGS readout, Target Concentration 30 | Phage library screen NGS readout, Target Concentration 100 | Phage library screen NGS readout, Target Concentration 300 | Phage library screen NGS readout, Target Concentration 1000 [1] | Phage library screen NGS readout, Target Concentration 1000 [2] | Phage library screen NGS readout, BLANK (column 1 of 5) | Phage library screen NGS readout, BLANK (column 2 of 5) | Phage library screen NGS readout, BLANK (column 3 of 5) | Phage library screen NGS readout, BLANK (column 4 of 5) | Phage library screen NGS readout, BLANK (column 5 of 5) | Sequence
1 | 1 | 0 | 6 | 18 | 16 | 2 | 1 | 0 | 1 | 1 | DPAMEWCWDAAVFCTYS
0 | 0 | 0 | 6 | 13 | 40 | 0 | 0 | 0 | 0 | 0 | DPAYDWCLYAAYQCDQN
0 | 0 | 0 | 3 | 5 | 12 | 0 | 3 | 0 | 0 | 0 | DPALDYCLYAAYDCMYA
0 | 0 | 0 | 4 | 14 | 13 | 0 | 0 | 0 | 0 | 0 | DPAIQECYLAAQVCTTY
0 | 0 | 0 | 1 | 7 | 4 | 0 | 0 | 1 | 0 | 0 | DPAYDWCLYAAEYCHTD
1 | 0 | 0 | 4 | 22 | 10 | 0 | 0 | 0 | 0 | 0 | DPAEDWCMYAAWDCQME
